Test results: patent publication US20070185028A1, “Compositions and methods for treatment of protein misfolding and protein aggregation diseases” (priority 2004, published 2007)
Entries after “also recorded” stand apart in the source; their conditions may differ.

Tests used:
[1] = biological target: T1, transthyretin (TTR) (Homo sapiens, UniProt P02766); assay: Transthyretin fibrillation ThT assay; assay type: biochemical; conditions: for effect on TTR fibril formation, overall: five αB crystallin peptides and control
T1 construct: purchased Sigma-Aldrich
Procedure: The effect of the five αB crystallin peptides ST, DR, HG, LT, and ER on TTR fibrillation was measured using the ThT fluorescence assay (FIG. 26). The formation and inhibition of TTR fibrils was qualitatively verified by fluorescence and bright-field microscopy. The concentration of the peptides was varied relative to TTR to establish a concentration curve. In addition, the effect of a control neuropeptide (AT1) with no TTR fibril inhibition activity was measured and compared to the effect of the αB crystallin peptides on TTR fibril formation. The ThT fluorescence of 16 μM TTR alone incubated at 37° C. for 4 hrs, increased from ˜15,000 to ˜45,000 RFU. Addition of 3.2 μM αB crystallin peptides, ST, DR, LT, and HG decreased the ThT fluorescence of TTR by 15-70%. In contrast, 3.2 μM ER had no effect on TTR fibril formation. Increasing the concentration of the ER peptide to 16 μM decreased the ThT fluorescence of TTR by 60%. The negative control peptide AT1 had no effect on TTR fibrillation even at a concentration as high as 160 μM. All five αB crystallin peptides inhibited TTR fibrillation at sub-stoichometric and stoichometric concentrations (3.2 μM and 16 μM).
The Thioflavin T (ThT) fluorescence of TTR in the presence of varying concentrations of αB crystallin peptides and controls was measured. […] When the concentration of the peptides was increased to 16 μM (1:1::peptide:TTR), the αB crystallin peptides ST, DR, HG, LT and ER decreased the ThT fluorescence by 8-72%. When the concentration of the peptides was increased further to 80 μM ([…]), all of the five αB crystallin peptides ST, DR, HG, LT, and ER decreased the ThT fluorescence by 40-70%. […] The formation and inhibition of TTR fibrils was verified microscopically.
Transthyretin fibrillation ThT assays were performed as described previously. Hurshman et al., Biochemistry 43:7365-81, 2004; O'Nuallain and Wetzel, Proc Natl Acad Sci USA 99:1485-90, 2002. Peptides were dissolved to 2 mM in 0.25% DMSO and diluted accordingly, while TTR was dissolved in 200 mM KCl, 2 mM EDTA, 5 mM PBS, 200 mM sodium acetate, pH 4.4. For the 5::peptide:TTR assay, 10 μL of 160 μM peptide was mixed with 10 μL of 32 μM TTR, and 1 μL of 1 mM ThT. For the 1:1::peptide:TTR assay, 10 μL of 32 μM peptide was mixed with 10 μL of 32 μM TTR and 1 μL of 1 mM ThT. For the 1:5::peptide:TTR assay, 10 μL of 6.4 μM peptide was mixed with 10 μL of 32 μM TTR and 1 μL of 1 mM ThT. ThT fluorescence was measured using a Perkin Elmer Victor^3 V plate reader. Assays were performed in 384-well fluorescence plates in duplicates or triplicates. Samples were incubated at 37° C. ThT fluorescence was measured continuously for 150 minutes. The effect of the peptides and APS was calculated as percentage fibril formation relative to TTR alone (100%) at the end of 150 minutes.

[2] = as provided by manufacturer (Mimotopes); cited from earlier work
[3] = tested on: bovine βH crystallin; assay: αB crystallin protein pin array with βH crystallin; assay type: binding; conditions: unheated βH crystallin, 23° C.; similar maxima pre-heated 45° C.
Description: Synthesis of Pins, binding and detection of peptides binding to ligand proteins. The αB crystallin protein pin array was used to measure the interaction between peptides and chaperone target proteins including bovine βH crystallin, human γD crystallin, equine alcohol dehydrogenase (ADH) and porcine citrate synthase (CS) as described (FIG. 12). Ghosh and Clark, Protein Sci 14: 684-95, 2005.
Refer to the methods section for detailed protocols. The absorbance corresponding to the blue coloration in each well was measured at λ=450 nm and plotted against the amino acid sequence of the corresponding peptide in that well (FIGS. 13 and 14). Wells containing peptides that have strong interactions with target proteins are dark blue and wells containing peptides that have weak or no interaction with target proteins are light blue or clear.
The purity of the target proteins used in the pin array assays, bovine βH crystallin, human γD crystallin, equine alcohol dehydrogenase (ADH) and porcine citrate synthase (CS) were determined to be >90% by SDS-PAGE. In addition, primary antibodies for each target protein were specific to that target protein and consequently contaminating proteins that may bind to the peptides will not be detected. Eighty-four sequential and overlapping peptide fragments corresponding to residues 1-175 of human αB crystallin were synthesized employing a simultaneous peptide synthesis strategy developed by Geysen, called Multipin Peptide Synthesis (Mimotopes, San Diego, Calif.). Geysen, Southeast Asian J Trop Med Public Health 21: 523-33, 1990; Chin et al., J Org Chem 62: 538-539, 1997. Peptides were immobilized on derivatized polyethylene pins arranged in a microtiter ELISA plate format. Each peptide was eight amino acids in length and consecutive peptides were offset by two amino acids. All peptides were bound covalently to the surface of the plastic pins. The first peptide was 1MDIAIHHP8 and the last peptide was 168PAVTAAPK175 for human αB crystallin.
Ghosh and Clark, Protein Sci 14: 684-95, 2005. […] The intensity of the blue color in the wells was measured at 450 nm using an ELISA plate-reader (BioTek, Winooski, Vt.). The intensity of the blue color (plotted on the X-axis) was a measure of the interaction between αB crystallin peptides (plotted on the Y-axis) and target proteins. To measure the effect of temperature on the interactions between interactive peptides and the target proteins, the target proteins were heated in a water-bath at 45° C. for fifteen minutes prior to use. Pin arrays are unable to differentiate between monomers, dimers or oligomers of target proteins that exist in solution. Instead, pin arrays are very sensitive detectors of interactions between individual peptides and the entire population (monomers, dimers or oligomers) of specific target proteins that may exist in solution under specific conditions. Each target protein was assayed two to five times. A single pin array was used for all experiments and no change in interactions was observed after more than thirty repetitions. The last three peptides of the protein pin array, 163REEKPAVT170, 165EKPAVTAA172, 167PAVTAAPK174, correspond to the epitope (163REEKPAVTAAPKK175) recognized by the primary antibody for human αB crystallin. A positive reaction is observed for these three peptides in the absence of human αB crystallin as the ligand due to direct binding of the anti-human αB crystallin antibody to these three peptides. The loss of efficiency for the pin array was measured using this assay. The loss of efficiency for the pin array was determined to be <5% by after more than 30 assays.
Protein pin arrays enabled the identification of interactive sequences necessary for the chaperone activity of human αB crystallin. Interactions between immobilized 8-mer human αB crystallin peptides and unheated and pre-heated βH crystallin, a natural protein constitute of lens cells, were measured as absorbances at λ=450 nm at 23° C. […]

Row | Sequence | effect on TTR fibril formation, overall [1] | Hydrophobicity [2] | absorbance at 450 nm, interaction with βH crystallin [3] | further results
1 | DRFSVNLDVKHFS | strong inhibition |  |  | 
2 | ERTIPITRE | modestly inhibited |  |  | decrease in ThT fluorescence of TTR ([1]; 3.2 μM, 16 μM TTR, 37° C.): no effect
3 | FSVNLDVK [Peptide 38] |  | 0.44 | Maximum absorbances | 
4 | HGKHEERQDE |  |  |  | effect on TTR fibril formation, overall ([1]; listed as HG): most effective inhibitor; also recorded: strong inhibition
5 | LTITSSLS [Peptide 66] |  | 0.7 | Maximum absorbances | 
6 | LTITSSLSSDGV | partially inhibited |  |  | 
7 | STSLSPFYLRPPSFLRAP | partially inhibited |  |  | 
8 | WIRRPFFP [Peptide 5] |  | 0.88 | Maximum absorbances | 
